The record followed here is patent publication US20100093618A1 (published 2010).

Changes are numbered by the printed parent chain.

For assay [1], the target named is T1, GST (UniProt P08515 1-218 = GST).
T1 construct: Negative control in the pulldowns; also called GST protein; GST alone
Nature of the assay: GST pulldown of [35S]-labeled in vitro translated protein, autoradiography.
Protocol: (§1) The pcDNA3 plasmids expressing the IκB genes under the T7 promoter were used as templates to translate in vitro the [³⁵S]methionine-labeled IκB proteins by using the TNT Quick Coupled transcription/translation systems (Promega). Aliquots (10 μl) of translation mixture were incubated with GST-Tat or GST proteins (10 μg) in 500 μl of binding buffer supplemented with 1 μg/μl of bovine serum albumin on a rocking platform for 3 h at room temperature.

Assay [2] concerns the target T2, FLAG-p100 (in vitro translated) (human, UniProt Q00653 1-900).
T2 sequence: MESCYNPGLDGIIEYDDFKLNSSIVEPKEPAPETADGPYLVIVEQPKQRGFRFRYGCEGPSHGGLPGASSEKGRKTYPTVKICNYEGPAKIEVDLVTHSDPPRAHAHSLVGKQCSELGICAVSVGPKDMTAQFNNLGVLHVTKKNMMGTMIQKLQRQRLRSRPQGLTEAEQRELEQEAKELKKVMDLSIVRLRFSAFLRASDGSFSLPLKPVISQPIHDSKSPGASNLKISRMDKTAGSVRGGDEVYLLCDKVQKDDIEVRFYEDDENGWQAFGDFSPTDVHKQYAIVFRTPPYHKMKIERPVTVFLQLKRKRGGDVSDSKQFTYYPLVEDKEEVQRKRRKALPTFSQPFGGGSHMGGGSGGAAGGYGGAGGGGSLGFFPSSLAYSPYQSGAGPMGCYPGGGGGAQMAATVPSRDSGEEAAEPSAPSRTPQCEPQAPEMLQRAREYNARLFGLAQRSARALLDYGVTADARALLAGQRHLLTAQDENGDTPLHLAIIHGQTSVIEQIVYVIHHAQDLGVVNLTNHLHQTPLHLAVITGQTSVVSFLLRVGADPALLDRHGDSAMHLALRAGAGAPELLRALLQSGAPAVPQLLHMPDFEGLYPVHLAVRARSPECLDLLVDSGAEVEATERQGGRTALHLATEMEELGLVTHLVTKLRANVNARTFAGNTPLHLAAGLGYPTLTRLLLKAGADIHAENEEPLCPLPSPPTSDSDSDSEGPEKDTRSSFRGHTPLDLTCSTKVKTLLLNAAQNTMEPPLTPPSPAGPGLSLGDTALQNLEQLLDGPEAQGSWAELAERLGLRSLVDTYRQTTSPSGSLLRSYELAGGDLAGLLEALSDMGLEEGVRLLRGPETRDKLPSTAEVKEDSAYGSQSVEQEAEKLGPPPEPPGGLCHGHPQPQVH
Nature of the assay: GST-Tat pulldown of in vitro translated protein, anti-FLAG Western blot.
Protocol: (§2) The proteins were resolved on 10% SDS-PAGE, transferred to polyvinylidene difluoride membranes, and analyzed by immunoblotting with the indicated antibodies. The pcDNA3 plasmids expressing the IκB genes under the T7 promoter were used as templates to translate in vitro the [³⁵S]methionine-labeled IκB proteins by using the TNT Quick Coupled transcription/translation systems (Promega). Aliquots (10 μl) of translation mixture were incubated with GST-Tat or GST proteins (10 μg) in 500 μl of binding buffer supplemented with 1 μg/μl of bovine serum albumin on a rocking platform for 3 h at room temperature.

In assay [3] the target is T3, [35S]methionine-labeled IκB-α 1-263 (in vitro translated) (UniProt P25963 1-263, [35S]methionine label).
T3 construct: Translated in vitro from pcDNA3
T3 sequence (looked up): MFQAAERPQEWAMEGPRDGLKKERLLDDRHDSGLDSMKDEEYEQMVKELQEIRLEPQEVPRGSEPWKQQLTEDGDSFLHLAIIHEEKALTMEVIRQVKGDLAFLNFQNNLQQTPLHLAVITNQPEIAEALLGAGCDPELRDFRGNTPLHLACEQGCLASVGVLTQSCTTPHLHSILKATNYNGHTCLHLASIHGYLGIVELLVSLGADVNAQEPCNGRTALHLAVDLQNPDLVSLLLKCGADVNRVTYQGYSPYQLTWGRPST
Kind of assay: GST-Tat pulldown of [35S]-labeled in vitro translated protein, autoradiography.
Protocol: as §1

Assay [4] has as its target T4, p105 (in vitro translated) (human, UniProt P19838 1-968).
T4 sequence: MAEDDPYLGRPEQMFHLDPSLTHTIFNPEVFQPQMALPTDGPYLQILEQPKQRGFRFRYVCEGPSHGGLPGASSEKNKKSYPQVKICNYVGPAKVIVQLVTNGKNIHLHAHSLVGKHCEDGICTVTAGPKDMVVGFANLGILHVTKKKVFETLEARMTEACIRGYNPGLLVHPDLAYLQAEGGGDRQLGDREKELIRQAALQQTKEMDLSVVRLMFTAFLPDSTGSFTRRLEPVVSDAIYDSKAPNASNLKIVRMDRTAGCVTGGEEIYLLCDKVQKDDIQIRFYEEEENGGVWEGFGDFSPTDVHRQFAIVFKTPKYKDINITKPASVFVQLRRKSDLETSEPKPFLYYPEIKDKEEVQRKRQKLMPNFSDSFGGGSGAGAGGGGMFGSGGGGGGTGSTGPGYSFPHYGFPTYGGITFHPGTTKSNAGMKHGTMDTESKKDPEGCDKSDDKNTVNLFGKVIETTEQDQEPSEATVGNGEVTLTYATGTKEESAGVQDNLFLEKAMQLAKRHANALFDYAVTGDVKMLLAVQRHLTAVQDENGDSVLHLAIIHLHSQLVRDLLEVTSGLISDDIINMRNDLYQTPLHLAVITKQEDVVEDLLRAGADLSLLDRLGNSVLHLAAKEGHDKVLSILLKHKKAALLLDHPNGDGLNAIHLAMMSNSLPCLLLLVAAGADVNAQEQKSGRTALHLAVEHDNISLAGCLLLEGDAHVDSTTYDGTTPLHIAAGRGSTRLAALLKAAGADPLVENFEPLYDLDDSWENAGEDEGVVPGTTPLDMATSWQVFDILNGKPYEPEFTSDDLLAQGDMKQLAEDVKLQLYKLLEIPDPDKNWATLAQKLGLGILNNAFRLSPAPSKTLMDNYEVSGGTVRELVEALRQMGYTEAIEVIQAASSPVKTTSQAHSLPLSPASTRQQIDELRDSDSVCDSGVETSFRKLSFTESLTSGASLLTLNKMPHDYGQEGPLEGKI
Nature of the assay: GST-Tat pulldown of in vitro translated protein, anti-p105 Western blot.
Protocol: as §2

For assay [5], the target named is T1, GST. Kind of assay: GST pulldown from extracts of transfected HeLa cells, anti-FLAG Western blot.
A further assay addresses T5, GST-IκB-α (UniProt P25963 1-317).
T5 construct: also called pGEX-2T-IκB-α product; not shown: glutathione S-transferase (GST) encoded by pGEX-2T
T5 sequence: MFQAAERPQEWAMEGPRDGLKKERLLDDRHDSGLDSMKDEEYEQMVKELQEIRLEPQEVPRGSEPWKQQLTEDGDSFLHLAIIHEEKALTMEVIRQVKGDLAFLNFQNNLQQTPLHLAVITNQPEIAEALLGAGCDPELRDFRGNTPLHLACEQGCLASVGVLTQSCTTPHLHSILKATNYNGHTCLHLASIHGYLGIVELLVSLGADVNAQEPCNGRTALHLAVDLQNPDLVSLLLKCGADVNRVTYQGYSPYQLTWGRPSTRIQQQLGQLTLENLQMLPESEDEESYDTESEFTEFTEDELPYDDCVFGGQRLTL
Nature of the assay: GST-IκB-α pulldown from extracts of transfected HeLa cells, anti-FLAG Western blot.

T1 sequence (P08515 whole entry): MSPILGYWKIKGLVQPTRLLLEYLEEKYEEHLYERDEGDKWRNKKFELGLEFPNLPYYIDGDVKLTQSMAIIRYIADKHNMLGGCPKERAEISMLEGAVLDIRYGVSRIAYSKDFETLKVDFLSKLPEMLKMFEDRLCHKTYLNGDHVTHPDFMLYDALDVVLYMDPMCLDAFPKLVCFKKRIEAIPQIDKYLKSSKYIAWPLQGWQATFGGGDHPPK

B1: [35S]methionine-labeled IκB-α 120-317 (in vitro translated) (other, UniProt P25963 120-317, looked up)
chain: ITNQPEIAEALLGAGCDPELRDFRGNTPLHLACEQGCLASVGVLTQSCTTPHLHSILKATNYNGHTCLHLASIHGYLGIVELLVSLGADVNAQEPCNGRTALHLAVDLQNPDLVSLLLKCGADVNRVTYQGYSPYQLTWGRPSTRIQQQLGQLTLENLQMLPESEDEESYDTESEFTEFTEDELPYDDCVFGGQRLTL
modifications: [35S]methionine label
notes: Translated in vitro from pcDNA3
Take B1: the binding result with GST [1] is “no binding”.

B2: [35S]methionine-labeled IκB-α 243-317 (in vitro translated) (other, UniProt P25963 243-317, looked up)
chain: VNRVTYQGYSPYQLTWGRPSTRIQQQLGQLTLENLQMLPESEDEESYDTESEFTEFTEDELPYDDCVFGGQRLTL
modifications: [35S]methionine label
notes: as for B1
B2: the binding result with GST [1] is “no binding”.

B3: [35S]methionine-labeled IκB-α 72-287 (in vitro translated) (other)
chain: EDGDSFLHLAIIHEEKALTMEVIRQVKGDLAFLNFQNNLQQTPLHLAVITNQPEIAEALLGAGCDPELRDFRGNTPLHLACEQGCLASVGVLTQSCTTPHLHSILKATNYNGHTCLHLASIHGYLGIVELLVSLGADVNAQEPCNGRTALHLAVDLQNPDLVSLLLKCGADVNRVTYQGYSPYQLTWGRPSTRIQQQLGQLTLENLQMLPESEDEE
modifications: [35S]methionine label
In the case of B3, the binding result with GST [1] is “no binding”.

B4: [35S]methionine-labeled IκB-α 72-287 L(272,274,277)A (in vitro translated) (other, UniProt P25963 72-287, looked up)
chain: B3 chain with L201A, L203A, L206A
modifications: [35S]methionine label
notes: range 72-287
Turning to B4, in the assay with GST [1], the binding result is listed as “no binding”.

B5: GST-Tat (other)
chain: MEPVDPRLEPWKHPGSQPKTACTNCYCKKCCFHCQVCFITKALGISYGRKKRRQRRRAHQNSQTHQASLSKQPTSQPRGDPTGPKE
notes: also called GST-Tat fusion protein from pGEX-2T-Tat; not shown: glutathione S-transferase (GST) encoded by pGEX-2T
B5: the binding result in assay [2], in assay [3] and in assay [4] was “no binding” in each case.

B6: FLAG-Tat (p3XFLAG-CMV-Tat, wild type) (other)
chain: B5 chain
notes: Expressed in transfected HeLa cells (or MEFs); also called wild type Tat
Regarding B6, in the assay with GST [5], the binding result is recorded as “no binding”.

B7: FLAG-Tat R(49-57)A (p3XFLAG-CMV-Tat R(49-57)A) (other)
chain: B5 chain with R49A, R52A, R53A, R55A, R56A, R57A
On to B7, for which the binding result with GST-IκB-α and in the assay with GST [5] was “no binding” in each case.

B8: FLAG-Tat C(22,25,27)A (p3XFLAG-CMV-Tat C(22,25,27)A) (other)
chain: B5 chain with C22A, C25A, C27A
notes: Expressed in transfected HeLa cells
As for B8, the binding result in the assay with GST [5] is reported as “no binding”.
